From the supplement of paper PMC7877785
± gives the uncertainty stated by the source.

Assay: self-splicing fitness, log relative to wild type (ln ratio); higher = more splicing; Tetrahymena group I intron in knt gene, E. coli kanamycin selection, DiMSum; sequences stand for … in CUCUCU…GGAGGGAAAAGUUAUCAGGCAUGCACCUGGUAGCUAGUCUUUAAACCAAUAGAUUGCAUCGGUUUAAAAGGCAAGACCGUCAAAUUGCGGGAAAGGGGUCAACAGCCGUUCAGUACCAAGUCUCAGGGGAAACUUUGAGAUGGCCUUGCAAAGGGUAUGGUAAUAAGCUGACGGACAUGGUCCUAACCACGCAGCCAAGUCCUAAGUCAACAGAUCUUCUGUUGAUAUGGAUGCAGUUCACAGACUAAAUGUCGGUCGGGGAAGAUGUAUUCUUCUCAUAAGAUAUAGUCGGACCUCUCCUUAAUGGGAGCUAGCGGAUGAAGUGAUGCAACACUGGAGCCGCUGGGAACUAAUUUGUAUGCGAAAGUAUAUUGAUUAGUUUUGGAGUACUCGUGGUCG
How it was run: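 Six replicate transformations of E. coli BL21(DE3) with a pET-22b(+) library were grown overnight at 37°C or 30°C. The library randomised all eight P1ex-region intron nucleotides, the intron lying in the knt kanamycin-resistance gene, and plates were LB agar with or without 25 μg/mL kanamycin plus 100 μg/mL carbenicillin, 50 μM IPTG and 0.2% rhamnose. Pooled colonies were amplicon-sequenced on an Illumina HiSeq 2500, and fitness is the DiMSum error-weighted combination of wild-type-normalised replicate fold changes, kanamycin versus none.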

| Sequence | self-splicing fitness (ln) (30 °C) | self-splicing fitness (ln) (37 °C) |
| --- | --- | --- |
| GGCGAGCAAUAUUACGCAUG | -1.32 ± 0.22 | -0.82 ± 0.23 |
| GGCGAGCAAUAUUACGCGGA | -2.3 ± 0.17 | -0.458 ± 0.13 |
| GGCGAGCAAUAUUACGCUAC | -1.38 ± 0.22 | 1.89 ± 0.48 |
| GGCGAGCAAUAUUACGCUAG | -3.88 ± 0.28 | -2.82 ± 0.23 |
| GGCGAGCAAUAUUACGGAAC | -1.91 ± 0.19 | -1.68 ± 0.26 |
| GGCGAGCAAUAUUACGUACG | -2.43 ± 0.18 | -1.35 ± 0.22 |
| GGCGAGCAAUAUUACGUAUA | -1.86 ± 0.14 | -1.07 ± 0.13 |
| GGCGAGCAAUAUUACGUCAG | -2.33 ± 0.31 | -3.08 ± 0.4 |
| GGCGAGCAAUAUUACGUCUC | -1.87 ± 0.23 | -1.67 ± 0.38 |
| GGCGAGCAAUAUUACGUGUC | -4.05 ± 0.21 | -1.46 ± 0.16 |
| GGCUAGCAAUAUUACGAAUU | -0.487 ± 0.19 | -0.299 ± 0.15 |
| GGCUAGCAAUAUUACGAGGC | -2.31 ± 0.24 |  |
| GGCUAGCAAUAUUACGAGUA | -1.59 ± 0.13 | -0.404 ± 0.13 |
| GGCUAGCAAUAUUACGAUGA | -0.793 ± 0.15 | -0.54 ± 0.16 |
| GGCUAGCAAUAUUACGAUGU | -1.45 ± 0.084 | -0.785 ± 0.083 |
| GGCUAGCAAUAUUACGAUUG | -1.67 ± 0.12 | -1.47 ± 0.13 |
| GGCUAGCAAUAUUACGCAAG | -4 ± 0.46 | -0.63 ± 0.22 |
| GGCUAGCAAUAUUACGGGAG | -2.17 ± 0.14 | -1.84 ± 0.19 |
| GGCUAGCAAUAUUACGGGUU | -1.9 ± 0.096 | -0.879 ± 0.09 |
| GGCUAGCAAUAUUACGGUAU | -0.65 ± 0.061 | 0.376 ± 0.084 |
| GGCUAGCAAUAUUACGGUGG | -1.23 ± 0.096 | -0.767 ± 0.1 |
| GGCUAGCAAUAUUACGUCAC | -2.28 ± 0.16 | -1.01 ± 0.17 |
| GGCUAGCAAUAUUACGUCGG | -3.95 ± 0.29 | -2.61 ± 0.26 |
| GGCUAGCAAUAUUACGUCGU | 0.26 ± 0.075 | 0.153 ± 0.092 |
| GGCUAGCAAUAUUACGUGAU | -0.939 ± 0.099 | -0.509 ± 0.11 |

| Sequence | self-splicing fitness (ln) (30 °C) | self-splicing fitness (ln) (37 °C) |
| --- | --- | --- |
| GGCUAGCAAUAUUACGUGCU | -2.34 ± 0.24 | -1.27 ± 0.14 |
| GGCUAGCAAUAUUACGUGUC | -1.67 ± 0.18 | -1.26 ± 0.23 |
| GGCUAGCAAUAUUACGUUAU | -0.733 ± 0.072 | -0.394 ± 0.091 |
| GGGAAGCAAUAUUACGAAAC | -0.695 ± 0.14 | -0.469 ± 0.17 |
| GGGAAGCAAUAUUACGAACA | -1.2 ± 0.13 | -0.445 ± 0.14 |
| GGGAAGCAAUAUUACGAACG | -0.494 ± 0.086 | 0.55 ± 0.16 |
| GGGAAGCAAUAUUACGACGC | -0.0345 ± 0.14 | -0.0751 ± 0.18 |
| GGGAAGCAAUAUUACGAGCG | -1.41 ± 0.12 | -0.447 ± 0.15 |
| GGGAAGCAAUAUUACGAUGC | 0.369 ± 0.12 | 0.306 ± 0.13 |
| GGGAAGCAAUAUUACGCACA | -2.53 ± 0.26 | -0.142 ± 0.41 |
| GGGAAGCAAUAUUACGCCUU | -1.8 ± 0.17 | 0.48 ± 0.15 |
| GGGAAGCAAUAUUACGCGAA | -0.913 ± 0.14 | -0.969 ± 0.2 |
| GGGAAGCAAUAUUACGCGAG | -1.06 ± 0.33 | -1.27 ± 0.47 |
| GGGAAGCAAUAUUACGCUAG | -1.73 ± 0.18 | -1.01 ± 0.2 |
| GGGAAGCAAUAUUACGCUGG | -2.97 ± 0.23 | -1.73 ± 0.18 |
| GGGAAGCAAUAUUACGCUUA | -0.798 ± 0.12 | -0.449 ± 0.12 |
| GGGAAGCAAUAUUACGCUUG | -1.61 ± 0.21 | -0.729 ± 0.2 |
| GGGAAGCAAUAUUACGGAUG | -3.55 ± 0.21 | -1.15 ± 0.15 |
| GGGAAGCAAUAUUACGGCAA | -0.863 ± 0.14 | -1.02 ± 0.14 |
| GGGAAGCAAUAUUACGGCUG | -0.935 ± 0.13 | -0.54 ± 0.17 |
| GGGAAGCAAUAUUACGGGCG | -1.14 ± 0.13 | -0.362 ± 0.15 |
| GGGAAGCAAUAUUACGGGUA | -0.928 ± 0.2 | -2.25 ± 0.23 |
| GGGAAGCAAUAUUACGGUGC | -1.17 ± 0.17 | -0.397 ± 0.22 |
| GGGAAGCAAUAUUACGUACG | -0.982 ± 0.15 | -0.441 ± 0.18 |
| GGGAAGCAAUAUUACGUACU | -2.15 ± 0.21 | -2.2 ± 0.22 |

| Sequence | self-splicing fitness (ln) (30 °C) | self-splicing fitness (ln) (37 °C) |
| --- | --- | --- |
| GGGAAGCAAUAUUACGUAUG | -2.95 ± 0.16 | -1.11 ± 0.15 |
| GGGAAGCAAUAUUACGUCAA | -1.34 ± 0.32 |  |
| GGGAAGCAAUAUUACGUCUG | 0.292 ± 0.099 | -0.174 ± 0.12 |
| GGGAAGCAAUAUUACGUUCA | 0.0857 ± 0.1 | -0.473 ± 0.14 |
| GGGAAGCAAUAUUACGUUGA | -3.37 ± 0.23 | -1.94 ± 0.18 |
| GGGAAGCAAUAUUACGUUGC | -3.92 ± 0.42 |  |
| GGGCAGCAAUAUUACGACUU | 0.0195 ± 0.16 | -0.0822 ± 0.19 |
| GGGCAGCAAUAUUACGAUUU | -0.054 ± 0.053 | -0.281 ± 0.065 |
| GGGCAGCAAUAUUACGCCAU | -1.69 ± 0.12 | -1.21 ± 0.13 |
| GGGCAGCAAUAUUACGCGAU | -2.41 ± 0.39 | -1.8 ± 0.28 |
| GGGCAGCAAUAUUACGCUGA | -1.25 ± 0.12 | -0.998 ± 0.15 |
| GGGCAGCAAUAUUACGCUUC |  | -1.85 ± 0.17 |
| GGGCAGCAAUAUUACGGACA | -1.97 ± 0.38 | -0.246 ± 0.39 |
| GGGCAGCAAUAUUACGGACC | -0.717 ± 0.25 | 0.0103 ± 0.36 |
| GGGCAGCAAUAUUACGGAGU | -2.8 ± 0.12 | -1.78 ± 0.11 |
| GGGCAGCAAUAUUACGGCAG | -2.41 ± 0.13 | -0.994 ± 0.14 |
| GGGCAGCAAUAUUACGGCCG | -1.5 ± 0.16 | -1.59 ± 0.26 |
| GGGCAGCAAUAUUACGGGCC | -2.96 ± 0.2 | -2.66 ± 0.31 |
| GGGCAGCAAUAUUACGGUAG | -3.2 ± 0.19 | -1.34 ± 0.19 |
| GGGCAGCAAUAUUACGGUAU | -1.06 ± 0.081 | -0.373 ± 0.13 |
| GGGCAGCAAUAUUACGUACU | -0.53 ± 0.098 | -0.834 ± 0.11 |
| GGGCAGCAAUAUUACGUAGC | -1.79 ± 0.22 | -0.913 ± 0.28 |
| GGGCAGCAAUAUUACGUAGG | -2.38 ± 0.075 | -1.32 ± 0.091 |
| GGGCAGCAAUAUUACGUCAG | -1.19 ± 0.087 | -0.138 ± 0.11 |
| GGGCAGCAAUAUUACGUCCU |  | -3.02 ± 0.32 |

| Sequence | self-splicing fitness (ln) (30 °C) | self-splicing fitness (ln) (37 °C) |
| --- | --- | --- |
| GGGCAGCAAUAUUACGUCUA | 0.309 ± 0.1 | -1.04 ± 0.1 |
| GGGCAGCAAUAUUACGUGGG | -3.1 ± 0.12 | -2.62 ± 0.13 |
| GGGGAGCAAUAUUACGAAGU | -2.04 ± 0.34 |  |
| GGGGAGCAAUAUUACGACAC | -0.721 ± 0.14 | -0.843 ± 0.24 |
| GGGGAGCAAUAUUACGACGG | -3.76 ± 0.46 |  |
| GGGGAGCAAUAUUACGACGU | -0.89 ± 0.12 | -0.094 ± 0.15 |
| GGGGAGCAAUAUUACGAUUG | -2.02 ± 0.45 | -1.67 ± 0.45 |
| GGGGAGCAAUAUUACGCAUA | -3.29 ± 0.48 | -2.28 ± 0.32 |
| GGGGAGCAAUAUUACGCGUG | -1.75 ± 0.13 | -1.96 ± 0.17 |
| GGGGAGCAAUAUUACGGGCC |  | -1.4 ± 0.28 |
| GGGGAGCAAUAUUACGGGUG | -3.57 ± 0.23 | -2.9 ± 0.43 |
| GGGGAGCAAUAUUACGGUCU | -3.73 ± 0.4 | -0.856 ± 0.31 |
| GGGGAGCAAUAUUACGGUUG | -3.25 ± 0.21 | -2.18 ± 0.22 |
| GGGGAGCAAUAUUACGGUUU | -1.27 ± 0.24 | -0.456 ± 0.29 |
| GGGGAGCAAUAUUACGUAUG |  | -1.58 ± 0.31 |
| GGGGAGCAAUAUUACGUCGC |  | -0.104 ± 0.44 |
| GGGGAGCAAUAUUACGUGAU | -2.84 ± 0.25 | -1.8 ± 0.26 |
| GGGGAGCAAUAUUACGUUUC | -2.65 ± 0.2 | -2.64 ± 0.29 |
| GGGUAGCAAUAUUACGACCA | -0.444 ± 0.23 | -0.732 ± 0.42 |
| GGGUAGCAAUAUUACGACGA | -0.202 ± 0.15 | -0.379 ± 0.14 |
| GGGUAGCAAUAUUACGAUAG | -2.32 ± 0.37 |  |
| GGGUAGCAAUAUUACGAUAU | -0.506 ± 0.11 | -0.0772 ± 0.12 |
| GGGUAGCAAUAUUACGAUUC | -0.648 ± 0.12 | 0.268 ± 0.19 |
